From US6395523 (NEW ENGLAND BIOLABS, dated 2002) come the findings set out here.

This data set deals with the molecule itself. As to the kind of experiment: gel filtration in the presence of DNA and Mg++ (self-association).

B1: nicking endonuclease N.BstNBI (enzyme)
chain: MAKKVNWYVSCSPRSPEKIQPELKVLANFEGSYWKGVKGYKAQEAFAKELAALPQFLGTTYKKEAAFSTRDRVAPMKTYGFVFVDEEGYLRITEAGKMLANNRRPKDVFLKQLVKWQYPSFQHKGKEYPEEEWSINPLVFVLSLLKKVGGLSKLDIAMFCLTATNNNQVDEIAEEIMQFRNEREKIKGQNKKLEFTENYFFKRFEKIYGNVGKIREGKSDSSHKSKIETKMRNARDVADATTRYFRYTGLFVARGNQLVLNPEKSDLIDEIISSSKVVKNYTRVEEFHEYYGNPSLPQFSFETKEQLLDLAHRIRDENTRLAEQLVEHFPNVKVEIQVLEDIYNSLNKKVDVETLKDVIYHAKELQLELKKKKLQADFNDPRQLEEVIDLLEVYHEKKNVIEEKIKARFIANKNTVFEWLTWNGFIILGNALEYKNNFVIDEELQPVTHAAGNQPDMEIIYEDFIVLGEVTTSKGATQFKMESEPVTRHYLNKKKELEKQGVEKELYCLFIAPEINKNTFEEFMKYNIVQNTRIIPLSLKQFNMLLMVQKKLIEKGRRLSSYDIKNLMVSLYRTTIECERKYTQIKAGLEETLNNWVVDKEVRF
notes: Tested for self-association by gel filtration under the same condition as MlyI; No dimers were observed
In the case of B1, the binding result was “no binding”.
